Reference: patent US20240182575A1 (Ablynx, published 2024)
One block for each binder: values may come before it.

Key:
[1] = target: T1, HuCTLA4-HuIgG1 (fusion protein of the extracellular part of human CD152 and human Fc gamma 1, CTLA4-Ig) (human, UniProt P16410 36-161); assay: competition ELISA, CTLA4-hFc in solution; blocked ligand coated B7-2-muFc
T1 construct: extracellular domain; also called CTLA4-hFc; CTLA4-Fc; not shown: human Fc gamma 1

[2] = target: T2, human CTLA4 (Y201 mutated to valine) on stably transfected CHO-K1 cells (human, UniProt P16410 36-223); assay: FACS, direct binding titration on human CTLA4 CHO cells (head prints IC50)
T2 construct: whole, on cells; the mutation of the intracellular position Y201 keeps the protein on the membrane; also called human CTLA4 overexpressing CHO cells; human CTLA4 transfectant

[3] = target: T1, HuCTLA4-HuIgG1 (fusion protein of the …); assay: SPR, Biacore T100, CTLA4-Ig amine-coupled
[4] = target: T2, human CTLA4 (Y201 mutated to valine) on …; assay: FACS competition, human CTLA4 CHO cells; blocked ligand CD80-Fc
Excerpt: (§1) The potency of selected Nanobodies to inhibit the interaction of CTLA4 with CD80 was also ranked using FACS based screening method. […] This concentration was previously determined to be the minimal amount required to saturate all CD80 binding sites on both human and cyno CTLA4 expressing CHO cell clones in the absence of any CTLA4 interaction blocking proteins. […] Dead cells were stained by including TOPRO3 vital dye in the final resuspension buffer. All samples were read on a BD FACSarray instrument. Dead cells were excluded from the analysis by gating out TOPRO3 vital dye positive scoring cells.

[5] = target: T2, human CTLA4 (Y201 mutated to valine) on …; assay: competition FACS on human CTLA4 CHO cells; competitor HuCD80-HuIgG1 10 nM
Excerpt: as §1

[6] = target: T1, HuCTLA4-HuIgG1 (fusion protein of the …); assay: alphascreen; competitor biotinylated HuCD80-MuIgG2a
Excerpt: Individual clones were scored as putative CTLA4/CD80 interaction inhibiting if the presence of the periplasmic extract decreased the fluorescent signal of the acceptor beads.

[7] = target: T3, cynomolgus monkey CTLA4 on stably transfected CHO-K1 cells (human CTLA4 cDNA with S13N, I17T and L105M) (human backbone with cynomolgus monkey …, UniProt P16410 36-223); assay: FACS, direct binding titration on cyno CTLA4 CHO cells (head prints IC50)
T3 chain: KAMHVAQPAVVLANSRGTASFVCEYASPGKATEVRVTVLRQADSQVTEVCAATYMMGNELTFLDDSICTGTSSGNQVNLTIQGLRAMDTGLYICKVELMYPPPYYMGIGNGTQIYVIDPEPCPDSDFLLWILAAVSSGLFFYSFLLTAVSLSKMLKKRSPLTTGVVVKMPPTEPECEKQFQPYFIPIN

[8] = target: T4, rhB7-H2-Fc (fusion protein of the extracellular part of human B7-H2 (ICOSL) and mouse Fc gamma 1, R&D Systems … (human; mouse, UniProt O75144 19-256; P01868 98-324 = IgG part, limits assumed); assay: competition ELISA, periplasmic extract, coated B7-H2; blocked ligand ICOS-biotin
T4 construct: extracellular domain;domain: Fc; bought; also called B7-H2 ectodomain
Protocol: Binding specificity was determined based on OD values compared to controls having received no Nanobody (high control).
After expression, the Nanobodies were purified via the His-tag on Talon beads.

[9] = target: T1, HuCTLA4-HuIgG1 (fusion protein of the …); assay: competition ELISA, CTLA4-hFc in solution; blocked ligand coated B7-1-muFc
Protocol: In order to determine B7-1 competition efficiency of CTLA4 binding Nanobodies, the purified clones were tested in an ELISA competition assay setup.

[10] = target: T5, HuCD86-MuIgG2a (fusion protein of the extracellular part of human CD86 and mouse Fc gamma 2a, Ancell Cat … (human; mouse, UniProt P42081 24-247; P01863 98-330 = IgG part); assay: competition ELISA, coated CD86-Ig; blocked ligand CD28-Ig
T5 construct: extracellular domain;domain: Fc; bought; also called B7-2

[11] = target: T6, HuCD80-HuIgG1 (fusion protein of the extracellular part of human CD80 and human Fc gamma 1, R&D Systems Cat … (human, UniProt P33681 35-242)); assay: SPR, Biacore 3000, antigen amine-coupled
T6 construct: extracellular domain; bought, produced in NS0 cells; also called CD80-IgG1; CD80-Ig; not shown: human Fc gamma 1
T6 sequence (looked up): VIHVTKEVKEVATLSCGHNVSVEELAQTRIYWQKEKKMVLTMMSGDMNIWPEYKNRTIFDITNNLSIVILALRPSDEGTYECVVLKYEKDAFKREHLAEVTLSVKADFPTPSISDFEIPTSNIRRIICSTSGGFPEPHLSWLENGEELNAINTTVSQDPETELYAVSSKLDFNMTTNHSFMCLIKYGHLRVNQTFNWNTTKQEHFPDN
Protocol: (§2) Affinity constants (Kd) of individual purified Nanobody clones were determined by surface plasmon resonance on a Biacore 3000 instrument. […] Remaining reactive groups were inactivated using ethanolamine. Nanobody binding was assessed at 1 and 0.1 microM. Each sample was injected for 4 min at a flow rate of 45 μl/min to allow for binding to chip-bound antigen. Next, binding buffer without Nanobody was sent over the chip at the same flow rate to allow for dissociation of bound Nanobody. After 2 min, remaining bound analyte was removed by injecting regeneration solution (50 mM NaOH or Glycine/HCl pH 1.5). Binding curves obtained at different concentrations of Nanobody were used to calculate Kd values.

[12] = target: T7, HuCD86-HuIgG1 (fusion protein of the extracellular part of human CD86 and human Fc gamma 1, R&D Systems Cat … (human, UniProt P42081 24-247)); assay: SPR, Biacore 3000, antigen amine-coupled
T7 construct: extracellular domain; bought; also called CD86-IgG1; CD86-Ig; not shown: human Fc gamma 1
T7 sequence (looked up): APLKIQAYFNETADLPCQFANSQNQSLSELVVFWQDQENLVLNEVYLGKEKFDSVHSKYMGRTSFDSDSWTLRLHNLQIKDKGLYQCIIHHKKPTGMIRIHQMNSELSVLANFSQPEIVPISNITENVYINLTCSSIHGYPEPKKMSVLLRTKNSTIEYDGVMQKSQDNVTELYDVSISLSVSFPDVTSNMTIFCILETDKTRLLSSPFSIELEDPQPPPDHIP
Protocol: as §2

[13] = target: T8, HuCD80-MuIgG2a (extracellular (173aa) domain of human CD80 fused to murine IgG2a Fc+hinge (232 aa), Ancell … (human; mouse, UniProt P33681 35-242); assay: competition ELISA, coated CD80-Ig; blocked ligand CD28-Ig
T8 construct: extracellular domain; bought, produced in CHO cells; also called B7-1-muFc; not shown: murine IgG2a Fc+hinge (232 aa)
T8 sequence (looked up): T6 sequence (looked up)
Protocol: Inhibition was determined based on OD values of controls having received no Nanobody (high control) or no CD28- or CTLA4-HuIgG1 fusion protein (low control).

[14] = target: T9, human CD28 on Jurkat cells (human, UniProt P10747 19-220); assay: FACS, Jurkat cells
T9 construct: whole, on cells; also called native form of the CD28 antigen; cell expressed CD28
Protocol: Binding of putative CD28 reactive Nanobodies clones was detected using unlabeled anti-c-myc tag mouse monoclonal antibody 9E10, followed by a phycoerythrin conjugated F(ab′)2 derived from goat-anti-mouse IgG (human and bovine crossabsorbed), and read on a BD FACSarray instrument. Dead cells were excluded from the analysis by gating out TOPRO3 vital dye positive scoring cells. Binding of the Nanobodies to cells was evaluated in BD FACSarray control software as PE channel histograms.

[15] = target: T10, HuCD28-HuIgG1 (fusion protein of the extracellular part of human CD28 and human Fc gamma 1, R&D Systems Cat … (human, UniProt P10747 19-152; P01857 100-330 = IgG part); assay: competition ELISA, periplasmic extract, CD28-hFc in solution; blocked ligand coated B7-1-muFc
T10 construct: extracellular domain;domain: Fc; bought; also called CD28-Ig; hCD28-Fc
Excerpt: This mixture was applied on the coated B7-1 and CD28 was allowed to bind to the immobilized B7-1.

[16] = target: T1, HuCTLA4-HuIgG1 (fusion protein of the …); assay: competition ELISA, CTLA4-hFc in solution; blocked ligand coated B7-1-muFc; remark: listed apart in the source

binding result [1]: binds
B1: 66B5 (VHH)
VHH: EVQLVESGGGLVQPGESLRLSCAASKSIFSISVMAWYRQAPGKQRELVARITPGGNTNYVDSVQGRFTISRDNAKNTVYLQMNSLKPEDTAVYYCNAQGSLLLAKYDYYGQGTQVTVSS
notes: Nanobody against CTLA4

IC50 [2]: 2.38 nM
Kd [3]: 0.466 nM
koff [3]: 0.00266 s⁻¹
kon [3]: 5.69e+06 M⁻¹ s⁻¹
IC50 (read off the curve) [4]: ~10 nM
IC50 [5]: 11.4 nM
IC50 [6]: 0.827 nM
IC50 [7]: 2.36 nM
B2: 4CTLAPMP02F4 (VHH)
VHH: EVQLVESGGGLVQTGGSLRLSCAASGRTFSNYTMGWFRQAPGKDREFVAAISRSGALKAYADSVKGRFTPSRDNAKKMAYLQMNSLKPEDTAVYYCAAAPVPWGTRPSFFPYDSWGQGTQVTVSS
notes: short label tied to the entry by the clone code only; not shown: C-terminal c-myc tag and His6 tag

binding result [8]: binds
B3: 95G6 (VHH)
VHH: EVQLVESGGALVQPGGSLRLSCAASGFTLGDYVIGWFRQAPGKEREWVSGISSRDGTTYYADSVKGRFTISRDNAKNTMYLQMNSLKPEDTAVYYCALRSGIAVARAPSNYDYWGQGTQVTVSS
notes: Nanobody against B7-H2 (ICOSL)

IC50 [2]: 4.55 nM
Kd [3]: 10 nM
koff [3]: 0.0187 s⁻¹
kon [3]: 1.86e+06 M⁻¹ s⁻¹
IC50 [5]: 36.4 nM
IC50 [6]: 1.04 nM
IC50 [7]: 5.51 nM
B4: 4CTLAPMP11F1 (VHH)
VHH: EVQLVESGGGLVQAGGSLRLSCAASGGTFSFYGMGWFRQAPGKEQEFVADIRTSAGRTYYADSVKGRFTISRDNAKNTVYLQMNSLKPEDTAVYYCAAEMSGISGWDYWGQGTQVTVSS
notes: short label tied to the entry by the clone code only; also called 11F1 WT; not shown: C-terminal c-myc tag and His6 tag

IC50 (read off the curve) [9]: ~200 nM
B5: 65D10 (VHH)
VHH: EVQLVESGGGLVQAGGSLRLSCAASGRTSSTATVGWFRQAPGKEREFVAVINWRSGFTYYADSVKGRFTISREYAKNTVYLQMDSLKPEDTAVYSCAADLGGRTLYGGIHYSPEEYAYWGQGTQVTVSS
notes: Nanobody against CTLA4; also called 65D10 (4-4)

IC50 (read off the curve) [10]: ~10 nM
Kd [11]: 23 nM
koff [11]: 0.0004 s⁻¹
kon [11]: 18000 M⁻¹ s⁻¹
Kd [12]: 553 nM
koff [12]: 0.002 s⁻¹
kon [12]: 3600 M⁻¹ s⁻¹
IC50 (read off the curve) [13]: ~400 nM
B6: CD8086PMP1E11 (VHH)
VHH: EVQLVESGGGLVQPGGSLRLSCAASGFTLDYSAIGWFRQAPGKEREGVSYISSSDGSTYYADSVEGRFTISRDNAKNTLYLQMNSLKPEDTAVYYCAAGGPFTVSTMPWLANYWGQGTQVTVSS
notes: not shown: C-terminal c-myc tag and His6 tag

binding result [14]: binds
binding result [15]: binds
B7: 65G2 (VHH)
VHH: EVQLVESGGGLVQPGGSLRLSCAASGFTLDAYAIHWFRQAPGKEREGVSCISSSDGSTYYANSVKGRFTISRDNAKNAVYLQMNSLKPEDTAVYYCATAKRCWGLSYEYDYWGQGTQVTVSS
notes: Nanobody against CD28

IC50 (read off the curve) [1]: ~200 nM
IC50 (read off the curve) [16]: ~100 nM
IC50 (read off the curve) [9]: ~100 nM
B8: 65H7 (VHH)
VHH: EVQLVESGGGLVQPGGSLRLSCAASGSILSIAVAGWYRRQPGKERELVATISPGNNTHYVDSVKGRFTISRDNAKNTVYLQMTTLKPDDTAAYYCNAKGSILLNAFDYWGKGTQVTVSS
notes: Nanobody against CTLA4; also called 65H7 (4-1)
